From paper PMC10660547 (Antibodies, 2023) come the findings set out here.

Assay [1] addresses T1, Phl p 7 (with a C-terminal tryptophan residue, biotinylated) (Phleum pratense (timothy grass), UniProt O82040, biotin (EZ-Link Maleimide-PEG2-Biotin)).
T1 construct: Phl p 7, polcalcin family 2-EF hand protein of timothy grass (Phleum pratense) pollen; C-terminal tryptophan residue added to aid spectrophotometric detection; also called biotinylated Phl p 7; timothy grass pollen allergen Phl p 7; source: E. coli BL21(DE3), purified (HisTrap FF Crude, SEC Superdex 75)
In words: SPR; biotinylated Phl p 7 immobilised on an SA chip, 50 nM HAPPID1 Fab captured by it, aδNb072 flowed over (200 nM to 3 nM); 25 °C, 10 mM HEPES pH 7.4, 150 mM NaCl, 0.05% P20, 5 mM CaCl2. Particulars: both partners purified. A general note: In SPR one partner is held on a chip, and binding of the other changes the refractive index at the surface.

Assay [2] deals with anti-IgD nanobody 072 (not stated (a llama and an alpaca were immunised)). In words: SPR; aδNb072 (100 nM) captured by an anti-His-tag antibody on a CM5 chip; Fab flowed over, two-fold dilution series 200 nM to 3 nM; Biacore T200, 25 °C, 10 mM HEPES pH 7.4, 150 mM NaCl, 0.05% P20; KD from koff/kon.
Chain of anti-IgD nanobody 072 (not stated (a llama and an alpaca were immunised)) (heavy, as listed by the source): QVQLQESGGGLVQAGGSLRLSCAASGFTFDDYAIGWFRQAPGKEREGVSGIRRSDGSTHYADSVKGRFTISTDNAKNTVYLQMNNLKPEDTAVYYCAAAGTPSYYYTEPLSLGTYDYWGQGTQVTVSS

T1 sequence (O82040 whole entry, looked up): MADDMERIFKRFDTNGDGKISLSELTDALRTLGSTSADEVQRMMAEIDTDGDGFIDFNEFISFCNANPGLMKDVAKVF

B1: HAPPID1 Fab with a C-terminal glycine4-serine linker and SpyTag on the heavy chain (Fab, V domains shown)
VH: QVQLVQSGAEVRNPGASVKVSCKASGYTFTSYAIHWVRQAPGHRLEWVGRINTDNGNTKYSQKFHGRVALSRDTSASTTYMDLSSLNSEDTAVYYCARAFYYSSGVMFDSWGQGALVTVSS
VL: QSALTQPPSVSGAPGQRVSISCTGGSSNFGAGYDVHWYQQLPATAPKLLIYGNNNRPSGVPDRFSGSKSGTSASLAITGLQAEDEGDYFCQSFDTSLSGWIFGGGTKLTVL
notes: as the heavy chain of m2 (VH of clone 102.1F10 with human Cδ1); as the light chain of m2 (lambda light chain of the HAPPI1 antibodies); Derived from pVITRO1-HAPPID1; also called SpyTagged HAPPID1 Fab; not shown: glycine4-serine linker and SpyTag, C-terminal, kept
With B1, in assay [1], the binding result is listed as “binds”. In assay [2], this molecule came in with a Kd of 1.4 nM, a koff of 0.000822 s⁻¹ and a kon of 586000 M⁻¹ s⁻¹.

B2: HAPPIE1 Fab (SpyTagged) (Fab, V domains shown)
VH: QVQLVQSGAEVRNPGASVKVSCKASGYTFTSYAIHWVRQAPGHRLEWVGRINTDNGNTKYSQKFHGRVALSRDTSASTTYMDLSSLNSEDTAVYYCARAFYYSSGVMFDSWGQGALVTVSS
VL: QSALTQPPSVSGAPGQRVSISCTGGSSNFGAGYDVHWYQQLPATAPKLLIYGNNNRPSGVPDRFSGSKSGTSASLAITGLQAEDEGDYFCQSFDTSLSGWIFGGGTKLTVL
In assay [2], B2 returned a Kd of 3.64 nM, a koff of 0.000829 s⁻¹ and a kon of 228000 M⁻¹ s⁻¹.

For orientation: Kd means a measure of binding affinity in units of concentration. Low readings indicate tighter binding, high ones weaker binding. Broadly, the koff is the first-order rate constant of dissociation. A low value points to slow dissociation. In general, kon refers to a measure of how fast the partners come together.
